Source: patent US20240398767A1, “INHIBITORS OF THE MTDH-SND1 PROTEIN COMPLEX FOR CANCER THERAPY” (The Trustees of Princeton University, priority 2021, published 2024)

T1: SND1-NLuc
T1 chain: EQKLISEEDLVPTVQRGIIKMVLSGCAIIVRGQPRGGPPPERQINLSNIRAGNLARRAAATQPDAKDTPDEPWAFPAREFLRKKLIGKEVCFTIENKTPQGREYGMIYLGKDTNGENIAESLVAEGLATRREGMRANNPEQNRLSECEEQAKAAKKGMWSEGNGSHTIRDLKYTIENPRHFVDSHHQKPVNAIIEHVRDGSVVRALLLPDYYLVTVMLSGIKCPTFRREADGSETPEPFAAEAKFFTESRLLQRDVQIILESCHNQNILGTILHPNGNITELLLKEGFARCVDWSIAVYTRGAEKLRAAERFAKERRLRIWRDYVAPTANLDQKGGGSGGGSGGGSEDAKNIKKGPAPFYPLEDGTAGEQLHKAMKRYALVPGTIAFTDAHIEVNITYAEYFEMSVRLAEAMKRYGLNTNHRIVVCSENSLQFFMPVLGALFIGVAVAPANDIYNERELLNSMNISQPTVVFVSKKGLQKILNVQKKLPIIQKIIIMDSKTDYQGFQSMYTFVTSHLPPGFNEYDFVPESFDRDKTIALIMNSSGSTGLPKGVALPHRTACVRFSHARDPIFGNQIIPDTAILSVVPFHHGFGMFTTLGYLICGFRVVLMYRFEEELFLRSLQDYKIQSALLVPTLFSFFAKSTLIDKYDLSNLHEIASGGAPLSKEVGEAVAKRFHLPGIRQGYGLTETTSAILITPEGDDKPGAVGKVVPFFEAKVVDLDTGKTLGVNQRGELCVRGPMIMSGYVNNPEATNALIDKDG

T2: SND1 (endogenous, SCP28 breast cancer cell lysate) (human, UniProt Q7KZF4 2-910)
T2 construct: Detected by Western blot after MTDH immunoprecipitation; also called Staphylococcal nuclease domain-containing 1
T2 sequence (looked up): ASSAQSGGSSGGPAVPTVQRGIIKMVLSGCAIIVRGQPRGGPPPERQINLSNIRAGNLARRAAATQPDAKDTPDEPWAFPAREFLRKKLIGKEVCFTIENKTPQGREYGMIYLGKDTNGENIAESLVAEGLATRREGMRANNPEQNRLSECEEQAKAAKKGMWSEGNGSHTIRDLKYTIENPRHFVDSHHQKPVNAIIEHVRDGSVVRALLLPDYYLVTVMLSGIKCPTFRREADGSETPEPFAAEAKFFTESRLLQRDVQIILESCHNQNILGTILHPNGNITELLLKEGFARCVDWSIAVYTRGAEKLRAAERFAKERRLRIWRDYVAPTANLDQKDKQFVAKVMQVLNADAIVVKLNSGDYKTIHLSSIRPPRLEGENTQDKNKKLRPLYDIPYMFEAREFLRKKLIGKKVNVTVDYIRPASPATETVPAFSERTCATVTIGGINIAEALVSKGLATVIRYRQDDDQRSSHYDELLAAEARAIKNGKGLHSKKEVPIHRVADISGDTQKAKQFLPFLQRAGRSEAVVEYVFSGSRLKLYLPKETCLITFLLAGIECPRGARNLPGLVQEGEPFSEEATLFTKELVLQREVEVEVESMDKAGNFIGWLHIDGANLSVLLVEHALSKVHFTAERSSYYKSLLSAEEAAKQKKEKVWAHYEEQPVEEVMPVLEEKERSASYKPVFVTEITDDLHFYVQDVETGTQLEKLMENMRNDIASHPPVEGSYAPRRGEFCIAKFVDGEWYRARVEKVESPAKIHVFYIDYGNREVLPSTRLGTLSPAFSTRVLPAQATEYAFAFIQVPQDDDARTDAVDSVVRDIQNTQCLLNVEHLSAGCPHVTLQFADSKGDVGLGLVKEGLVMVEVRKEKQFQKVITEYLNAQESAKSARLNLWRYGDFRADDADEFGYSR

B1: SND1-NLuc (other)
chain: T1 chain
notes: Expressed in HEK293T cells and used as cell lysate; also called Myc-SND1-NLuc; split-luc component
B2: CLuc-MTDH (other)
chain: MSGYVNNPEATNALIDKDGWLHSGDIAYWDEDEHFFIVDRLKSLIKYKGYQVAPAELESILLQHPNIFDAGVAGLPDDDAGELPAAVVVLEHGKTMTEKEIVDYVASQVTTAKKLRGGVVFVDEVPKGLTGKLDARKIREILIKAKKGGKSKLGGGSGGGSSSADPNSDWNAPAEEWGNWVDEYPYDVPDYA
notes: Expressed in HEK293T cells and used as cell lysate; also called CLuc-MTDH-HA; MTDH-CLuc
B3: MTDH (endogenous, SCP28 breast cancer cell lysate) (other, human, UniProt Q86UE4 1-582, looked up)
chain: MAARSWQDELAQQAEEGSARLREMLSVGLGFLRTELGLDLGLEPKRYPGWVILVGTGALGLLLLFLLGYGWAAACAGARKKRRSPPRKREEAAAVPAAAPDDLALLKNLRSEEQKKKNRKKLSEKPKPNGRTVEVAEGEAVRTPQSVTAKQPPEIDKKNEKSKKNKKKSKSDAKAVQNSSRHDGKEVDEGAWETKISHREKRQQRKRDKVLTDSGSLDSTIPGIENTITVTTEQLTTASFPVGSKKNKGDSHLNVQVSNFKSGKGDSTLQVSSGLNENLTVNGGGWNEKSVKLSSQISAGEEKWNSVSPASAGKRKTEPSAWSQDTGDANTNGKDWGRSWSDRSIFSGIGSTAEPVSQSTTSDYQWDVSRNQPYIDDEWSGLNGLSSADPNSDWNAPAEEWGNWVDEERASLLKSQEPIPDDQKVSDDDKEKGEGALPTGKSKKKKKKKKKQGEDNSTAQDTEELEKEIREDLPVNTSKTRPKQEKAFSLKTISTSDPAEVLVKNSQPIKTLPPATSTEPSVILSKSDSDKSSSQVPPILQETDKSKSNTKQNSVPPSQTKSETSWESPKQIKKKKKARRET
notes: Pulled down with anti-MTDH antibody and Protein-A/G beads; also called metadherin

Key:
[1] = biological target: T3, CLuc (firefly luciferase C-terminal fragment, 398-550aa) (UniProt P08659 398-550 = luciferase); assay: split-luciferase complementation, 293T cells
T3 construct: Fragment alone, without MTDH
Protocol: (§1) Luciferase-based screening. Seed HEK293T cells on 3×15 cm dish at 18-24 hr before transfection with 7-8×10⁶ cells per dish targeting 70-80% confluence when start transfection. 20 μg of pCDNA3.1-SND1-NLuc, pCDNA3.1-CLuc-MTDH, or 2 μg of pCDNA3.1-NLuc-CLuc plasmids that described above were transfected to each dish. 72 hr after transfection the cells were lysed with 5 ml of luciferase lysis buffer (2 mM EDTA, 20 mM DTT, 10% glycerol, 1% Triton X-100, 25 mM Tris base, adjusted to pH7.8 with H₃PO₄) at 4° C. for 20 min. The protein lysates were centrifuged at 13,000 rpm for 10 min, and the supernatant were collected.
(§2) For small chemical compound screening, white, flat-bottom, solid 384-well plates were used. Compounds were added into each well as 0.1 μl of 10 mM DMSO solution (or same amount of DMSO, serve as control). The first and last columns were free, and MTDH wild type ([…]) or mutant ([…]) peptides were added as positive and negative controls right before screening. Same amount of MTDH-CLuc and SND1-NLuc were pre-mixed at 4° C. for 30 min to generate split-luc. 5 μl of split- or linked-luc was added into each well. 15 μl of luciferase assay buffer (25 mM Glycylglycine pH 7.8, 15 mM K₃PO₄ pH 7.8, 15 mM MgSO₄, 4 mM EGTA, 2 mM ATP added just before use, 10 mM DTT added just before use and 1 mM D-Luciferin added just before use) was then added into each well to get a 20 μl reaction system with 50 μM of compounds (peptides) in each well. The plates were incubated at 4° C. for 1 hr and luciferase activity at each well was measured.

[2] = biological target: T4, NLuc (firefly luciferase N-terminal fragment, 1-416aa) (UniProt P08659 1-416 = luciferase); assay: split-luciferase complementation, 293T cells
T4 construct: range 1-416; Fragment alone, without SND1
Protocol: as §1, §2

SND1-NLuc [3] = biological target: B1; assay: split-luciferase complementation, 293T cells
Protocol: as §1, §2

SND1-NLuc [4] = biological target: B1; assay: split-luciferase competition assay, 50 µM peptide, competitor of CLuc-MTDH
Protocol: as §1
as §2, with “15 μl of luciferase assay buffer (25 mM Glycylglycine pH 7.8, 15 mM K₃PO₄ pH 7.8, 15 mM MgSO₄, 4 mM EGTA, 2 mM ATP added just before use, 10 mM DTT added just before use and 1 mM D-Luciferin added just before use) was then added into each well to get a 20 μl reaction system with 50 μM of compounds (peptides) in each well.” left out

SND1-NLuc [5] = biological target: T1, SND1-NLuc; assay: split-luciferase assay (inhibition of SND1-NLuc/CLuc-MTDH interaction)
[6] = biological target: T2, SND1 (endogenous, SCP28 breast cancer …); assay: Co-IP competition, SCP28 lysate, anti-MTDH antibody, Western blot for SND1
Protocol: (§3) FIG. 10E, Schematic diagram of Co-IP based confirmation of MTDH-SND1 inhibitory compounds (left). SCP28 cells were lysed for IP assay.2 μg of MTDH antibody together with 500 μM of MTDH wild type (Pep-WT) or mutant (Pep-MT) peptides were added into each 1 ml of samples. Red star indicates wild type MTDH peptide competing off SND1 that binds to MTDH.
(§4) Co-immunoprecipitation assay (Co-IP), which is a commonly used standard test to determine protein-protein interaction, was next employed to validate the candidates. Lysates of breast cancer cell line SCP28, a single cell-derived subline from the MDA-MB-231 TNBC cell line²⁵, was immunoprecipitated with anti-MTDH antibody alone or together with inhibitors (FIG. 3F and FIG. 10E). The samples were then incubated with Protein-A/G beads to pull down MTDH, followed by Western blot analysis to detect SND1. In such co-TP experiment, MTDH-WT but not MTDH-MT peptide blocks MTDH-SND1 interaction (FIG. 10E). […] Using multiple screening and validation platforms, two classes of compounds, C26s and C32s, were obtained that inhibit MTDH-SND1 interaction.

[7] = biological target: T2, SND1 (endogenous, SCP28 breast cancer …); assay: Co-IP from SCP28 lysate with 2 µg MTDH antibody
Protocol: as §3, §4

SND1-NLuc [8] = biological target: B1; assay: split-luciferase competition assay, HEK293T lysates
Protocol: as §1
as §2, with “15 μl of luciferase assay buffer (25 mM Glycylglycine pH 7.8, 15 mM K₃PO₄ pH 7.8, 15 mM MgSO₄, 4 mM EGTA, 2 mM ATP added just before use, 10 mM DTT added just before use and 1 mM D-Luciferin added just before use) was then added into each well to get a 20 μl reaction system with 50 μM of compounds (peptides) in each well.” left out

B1
binding result [1]: no binding

B2
binding result [2]: no binding
binding result (SND1-NLuc [3]): binds

PNSDWNAPAEEWGNW (also called MTDH-WT peptide; Pep-WT) [wild type MTDH (MTDH-WT) minimal peptide]
binding result (SND1-NLuc [4]): binds
IC50 (SND1-NLuc [5]): 1200 nM
binding result [6]: binds

B3
binding result [7]: binds

PNSDANAPAEEAGNW (also called Pep-MT; MTDH mutant peptide) [mutant MTDH (MTDH-MT) peptide]
binding result [6]: no binding (tested: 500 µM)
binding result (SND1-NLuc [8]): no binding (tested: 50 µM)
